How the values were obtained:
[1] = target: (His)Rpo3ΔFeS2 (Methanosarcina acetivorans) (UniProt P0CG28); test: pull-down; merodiploid M. acetivorans strains (native Rpo3 also present), tetracycline-induced; (His)Rpo3 variant held on Ni2+-agarose from lysate, anaerobic; eluates normalised to 15 ng (His)Rpo3; western blot for Rpo11, Rpo2′, Rpo1″
[2] = target: (His)Rpo3, N-terminally histidine-tagged wild-type Rpo3 expressed in Methanosarcina acetivorans (Methanosarcina acetivorans) (UniProt P0CG28)
[3] = target: (His)Rpo3mFeS2 (Methanosarcina acetivorans) (UniProt P0CG28)
[4] = target: (His)Rpo3ΔD3 (Methanosarcina acetivorans) (UniProt P0CG28)
[5] = target: (His)Rpo3ΔFeS1 (Methanosarcina acetivorans) (UniProt P0CG28)

| Substance | percent less in the eluate than with (His)Rpo3 (band intensity) [1] [% less] | nonspecific transcription (RNAP) activity of the imidazole eluate, gene replacement strain DJL51 (counts per min ng^-1 Rpo3) [2] | nonspecific transcription (RNAP) activity of the imidazole eluate, gene replacement strain DJL55 (counts per min ng^-1 Rpo3) [3] | nonspecific transcription (RNAP) activity of the imidazole eluate, gene replacement strain DJL54 (counts per min ng^-1 Rpo3) [4] | nonspecific transcription (RNAP) activity of the imidazole eluate, gene replacement strain DJL52 (counts per min ng^-1 Rpo3) [5] |
| --- | --- | --- | --- | --- | --- |
| Rpo2′ (RpoB′), catalytic subunit of Methanosarcina acetivorans RNA polymerase (from UniProt Q8TRB6 1-604) (natural protein) | 50 | – | – | – | – |
| Rpo1″ (RpoA″), catalytic subunit of Methanosarcina acetivorans RNA polymerase (natural protein) | – | 210 | 94 | 90 | 33 |

Source: PMC5300874
